{"source": "paper doi:10.1101/2022.10.04.510822", "about": "(bioRxiv, 2022)", "biological_target": "GST-GABARAP (human, UniProt O95166 1-117)", "sequence (O95166 whole entry, the tested form may be a part)": "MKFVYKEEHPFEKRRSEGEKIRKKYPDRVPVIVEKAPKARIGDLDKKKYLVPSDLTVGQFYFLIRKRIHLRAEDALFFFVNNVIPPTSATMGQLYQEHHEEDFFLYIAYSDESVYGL", "assay": "pull-down", "data": [{"binder": "KPHKHLPPAALHLIAYYKENKDREDKR", "note": "[WSTF peptide PP4 (residues 466-492)]", "values": [{"measurement": "binding result", "result": "binds"}]}]}
